Test [1] deals with recombinant human PD-1^ECD-hFc protein (human) (UniProt Q15116). In words: ELISA, coated PD-1-hFc, 1 µg/mL. In general terms: ELISA stands for enzyme-linked immunosorbent assay.
Test [2] has the same target. In words: ELISA, coated PD-1-hFc, 0.2 µg/mL.
Test [3] has the same target. In words: ELISA, coated PD-1-hFc, 0.0016 µg/mL.
Test [4] has the same target. Nature of the test: ELISA, coated PD-1-hFc, 0.0001 µg/mL.
Test [5] has the same target. In words: ELISA, coated PD-1-hFc, 0.008 µg/mL.
For test [6] the target is unchanged. Nature of the test: ELISA, coated PD-1-hFc, 0.00001 µg/mL.
The target is the same in test [7]. In words: ELISA, coated PD-1-hFc, 0.0003 µg/mL.
Test [8] has the same target. Nature of the test: ELISA, coated PD-1-hFc, 0.04 µg/mL.

Sequence of recombinant human PD-1^ECD-hFc protein (human) (Q15116 25-167): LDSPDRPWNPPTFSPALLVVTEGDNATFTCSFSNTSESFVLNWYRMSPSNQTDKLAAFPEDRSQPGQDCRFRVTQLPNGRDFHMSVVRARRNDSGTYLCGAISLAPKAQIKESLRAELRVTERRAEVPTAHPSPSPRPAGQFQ

For the substance “control protein (biotinylated non-PD-L1^ECD-hFc)”, the OD450 nm in test [1] was 0.51; in test [2], 0.1; in test [3] it was 0.19; in test [4], 0.12; in test [5], 0.135; in test [6], 0.09. In addition, the OD450 nm in test [7] was 0.255; in test [8] it was 0.49.

These data come from US20190010233A1.
